For one substance, reporter inversion by released Cre, qPCR results are on record in US20200102553A1.

In this assay the target is membrane-tethered Cre fusion: signal peptide, flag tag, CD8 transmembrane domain, GzB cleavage site, Cre recombinase (UniProt P01732). The assay can be described thus: cell-based or functional assay.

“Granzyme B (GzB) (from UniProt P10144 21-247) (enzyme)”: the reporter inversion by released Cre, qPCR turned out to be 3 fold.
